The results in this text go back to paper PMC3539201.

For the experiment, the target named is MBP-torsinAΔE (human) (UniProt O14656). Put plainly: pull-down.

B1: nesprin-3α (endogenous, mouse fibroblasts) (natural protein)
chain: MTQQPQEDFERSVEDAQAWMKVIQEQLQVNDNTKGPRAALEARLRETEKICQLESEGMVKVELVLRAAEALLATCQEGQKPEILARLRDIKSQWEETVTYMTHCHSRIEWVWLHWSEYLLAQDEFYRWFQKMVVALEPPVELQLGLKEKQWQLSHAQVLLHNVDNQAVLLDRLLEEAGSLFSRIGDPSVDEDAQKRMKAEYDAVKARAQRRVDLLAQVAQDHEQYREDVNEFQLWLKAVVEKVHSCLGRNCKLATELRLSTLQDIAKDFPRGEESLKRLEEQAVGVIQNTSPLGAEKISGELEEMRGVLEKLRVLWKEEEGRLRGLLQSRGDCEQQIQQLEAELGDFKKSLQRLAQEGLEPTVKTATEDELVAQWRLFSGTRAALASEEPRVDRLQTQLKKLVTFPDLQSLSDSVVATIQEYQSMKGKNTRLHNATRAELWQRFQRPLNDLQLWKALAQRLLDITASLPDLASIHTFLPQIEAALTESSRLKEQLAMLQLKTDLLGSIFGQERAATLLEQVTSSVRDRDLLHNSLLQRKSKLQSLLVQHKDFGVAFDPLNRKLLDLQARIQAEKGLPRDLPGKQVQLLRLQGLQEEGLDLGTQIEAVRPLAHGNSKHQQKVDQISCDQQALQRSLEDLVDRCQQNVREHCTFSHRLSELQLWITMATQTLESHQGDVRLWDAESQEAGLETLLSEIPEKEVQVSLLQALGQLVMKKSSPEGATMVQEELRKLMESWQALRLLEENMLSLMRNQQLQRTEVDTGKKQVFTNNIPKAGFLINPQDPIPRRQHGANPLEGHDLPEDHPQLLRDFEQWLQAENSKLRRIITMRVATAKDLRTREVKLQELEARIPEGQHLFENLLRLRPARDPSNELEDLRYRWMLYKSKLKDSGHLLTESSPGELTAFQKSRRQKRWSPCSLLQKACRVALPLQLLLLLFLLLLFLLPAGEEERSCALANNFARSFALMLRYNGPPPT
Molecule B1 yielded a fold nesprin-3α pulled down relative to MBP-torsinA of 3 fold.
